From patent publication US20220331363A1 (SHANGHAI GENBASE BIOTECHNOLOGY, published 2022)

B1: murine anti-BCMA antibody C11D5.3 (scFv), reference antibody (scFv, V domains shown)
VH: QIQLVQSGPELKKPGETVKISCKASGYTFTDYSINWVKRAPGKGLKWMGWINTETREPAYAYDFRGRFAFSLETSASTAYLQINNLKYEDTATYFCALDYSYAMDYWGQGTSVTVSS
VL: DIVLTQSPPSLAMSLGKRATISCRASESVTILGSHLIHWYQQKPGQPPTLLIQLASNVQTGVPARFSGSGSRTDFTLTIDPVEEDDVAVYYCLQSRTIPRTFGGGTKLEIK
B2: humanized anti-BCMA antibody C11D5.3-03 (scFv) (scFv, V domains shown)
VH: QIQLVQSGSELKKPGASVKVSCKASGYTFTDYSINWVRQAPGQGLEWMGWINTETREPAYAQGFTGRFVFSLDTSVSTAYLQISSLKAEDTAVYFCALDYSYAMDYWGQGTLVTVSS
VL: EIVLTQSPATLSMSLGERATLSCRASQSVTILGSHLIHWYQQKPGQPPRLLIQLASNVQTGIPARFSGSGSRTDFTLTISSLEEEDFAVYYCLQSRTIPRTFGGGTKVEIK
notes: For the soluble protein it states neither the domain order nor the linker
B3: humanized anti-BCMA antibody C11D5.3-04 (scFv) (scFv, V domains shown)
VH: QIQLVQSGSELKKPGASVKVSCKASGYTFTDYSMNWVRQAPGQGLEWMGWINTETREPTYAQGFTGRFVFSLDTSVSTAYLQISSLKAEDTAVYFCALDYSYAMDYWGQGTLVTVSS
VL: EIVLTQSPATLSMSLGERATLSCRASESVTILGSHLIHWYQQKPGQPPRLLIQLASNRATGIPARFSGSGSRTDFTLTISSLEEEDFAVYYCLQSRTIPRTFGGGTKVEIK
notes: as for B2

Assays:
[1] = biological target: T1, human BCMA expressed on human multiple myeloma cells (U266, MM.1S, RPMI8226) (human, UniProt Q02223 1-184); test: flow cytometry (FACS) on U266 cells
T1 construct: whole, on cells; Endogenous BCMA on tumor cell lines; also called BCMA-expressing tumor cells; BCMA+ cell line
T1 sequence (looked up): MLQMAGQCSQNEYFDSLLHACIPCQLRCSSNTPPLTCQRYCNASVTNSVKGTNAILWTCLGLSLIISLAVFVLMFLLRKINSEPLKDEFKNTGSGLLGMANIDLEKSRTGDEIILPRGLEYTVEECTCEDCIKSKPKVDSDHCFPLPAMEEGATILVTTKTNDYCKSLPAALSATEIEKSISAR
Protocol: (§1) Cells (human myeloma cells expressing BCMA or tissue cells not expressing BCMA) were digested, and 500,000 cells were seeded in 50 μL of PBS containing 2% FBS (FACS buffer) in a U-bottom 96-well plate. The test samples were subjected to a 3-fold serial dilution by diluting ⅓ volume (100 μL) in 200 μL of FACS buffer, starting at a concentration of 300 μg/mL (final concentration). 50 μL of the diluted antibody was added to each well of the cell plate and incubated at 4° C. for 1 hour. After washing twice with FACS buffer, 100 μL of secondary antibody (Abcam ab97003, 5 μg/mL, diluted in FACS buffer) was added to each well, and incubated at 4° C. for 0.5 hours. After staining and washing twice with FACS buffer, 200 μL of FACS buffer was added to each well, and reading was performed on the machine (BD C6plus).

[2] = biological target: T1, human BCMA expressed on human multiple …; test: flow cytometry (FACS) on RPMI8226 cells
Protocol: as §1

[3] = biological target: T1, human BCMA expressed on human multiple …; test: flow cytometry (FACS) on MM.1S cells
Protocol: as §1

[4] = biological target: T2, recombinant human BCMA protein (Sino Biological, 10620-H08H) (human, UniProt Q02223 1-54); test: ELISA, BCMA protein coated at 1 µg/mL, HRP anti-human secondary antibody
T2 construct: Bought protein, coated on the ELISA plate
T2 sequence (looked up): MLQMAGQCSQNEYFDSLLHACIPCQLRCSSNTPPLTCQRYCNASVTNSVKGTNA
Protocol: The binding activity of the antibodies to human BCMA protein was assessed using an ELISA method, and the antibody potency was compared using dose-dependent binding curves in ELISA.
BCMA protein (Sino Biological, 10620-H08H) was diluted to 1 μg/mL in PBS, 100 μL of the protein solution was added to each well of the ELISA plate and incubated at 4° C. overnight. The plate was washed 3 times in wash buffer (PBS, 0.05% Tween 20), and non-specific sites were blocked by adding 200 μl/w PBS+2% BSA blocking solution. C11D5.3-03, C11D5.3-04 or murine antibody C11D5.3 was added and incubated at 37° C. for 2 h. The plate was washed 3 times in wash buffer, and HRP-conjugated goat anti-human secondary antibody was added and incubated for 1 h at room temperature. The plate was washed 3 times in wash buffer, and the bound secondary antibody was detected by adding TMB (HRP substrate) and incubating the plate in the dark at room temperature for 5 to 10 minutes. The enzymatic reaction was stopped by adding 1M of sulfuric acid solution, and the light absorption at 450 nm was measured.

[5] = biological target: human Burkitt's lymphoma cell Daudi; test: flow cytometry (FACS) on Daudi cells, which Example 3 says do not express BCMA
Protocol: as §1

Binder	EC50 [1]	EC50 [2]	EC50 [3]	EC50 [4]	EC50 [5]
B1	4.4 µg/mL	3.81 µg/mL	1.62 µg/mL	0.011 µg/mL	–
B2	7.57 µg/mL	2.25 µg/mL	0.81 µg/mL	0.011 µg/mL	36.3 µg/mL
B3	1.99 µg/mL	0.82 µg/mL	0.47 µg/mL	0.011 µg/mL	30.7 µg/mL
